Laboratory results reported in the nanobody polyreactivity screen of Harvey et al. (2022).

Assay: yeast display, Sf9 membrane polyspecificity reagent, FACS + sequencing; frameworks hold sequencing errors
Method in brief: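 Using colony PCR, genes from sorted yeast display clones were amplified, then sequenced on MiSeq at 2 × 250 and filtered by CDR length. The clones had been stained with 10% biotinylated, detergent-solubilized Sf9 membrane reagent for 1 hour at 4 °C and sorted by FACS into low and high (top ~1%) gates on anti-HA and streptavidin fluorescence. Polyreactivity labels come from the gate of origin.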

Sequence | polyreactivity (PSR sort gate)
QVQLQESGGGLVQAGGSLGCAASCNISTRSEMGWYRQAPGKEREFVATINSGGITNYADSLKGRFTISRDNAKNTVYLRKNSLKAEVTAVYYRAVYGYFSYPYDYWGQGTQVSVSS | low polyreactivity
QVQLVESGGGLLQAGGRLRLSCAASGSIFPYYAMGWYRQAPGKERALVAAISDSGDSTYYADSVKGRFTMSRDNAKNTVYLQMNSLKPEDTAVYYCAADQTSSYYDPWGDYWGQGTQVTVSS | low polyreactivity
QVQLVESGGGLVQAGGSLRLSCAASGSTFIYYAMGWYRQAPGKEWELVAAITSAGRTNYADSVKGRFTISLDNAKHTVYLQMNSLKPEDTAVYYCAAAYRPRKHHYDYWGQGTQVTVSS | high polyreactivity
QVQLVESGGGLVQAGGSLRLSCAASGSISVVNMGWYRQPPRKERQFVASITSSGSTTYADSVKGRFTISRDNAKNTVYLQMNSLKPEDTAVYYCAADVGTDYTYQHPAGAAYDYWGEGTQVTVSS | low polyreactivity
QVQLVESGGGLVQAGGSLRLSCAASGSTFFGNTMGRYRQAPGKERELVAAISRRGGSTYYADSVKGRFTISRDNAKNTVYLQMNSLKPEDTAVYYCAKYYHSGGYTPGKYDYWGQGTQVTVSS | high polyreactivity
QVQLVESGGGLVQAGGSLRLSCAASGSNFANYAMGWYIQAHGKERELVAAISWSGSSTYYADSVKGRFTISRYNAKNTVYLQMNSLKPEDTAVYYCAADYATPTWEYYYWGQGTQVTVSS | low polyreactivity
QVHLVESGGGLVQAAGILRLSSAASGFTFVPYAMGWYRQAPGKERELVAAISWRRGSTYYADSVKGRFTISRDNAKITVYLQMNSLKPEDSGVYYGDDQYFSRSGYWGQGTQVTVSS | high polyreactivity
QVQLVESGGGLVQAGASLRLSCASSGFTFGYYTMGWYRQAPGKERELVAAISWSGDSTYYADSVKGRLTISRDNAKNTVYLQMNSLKPEDTAVYYCAAEVYGSWPDYDYSGQGTQVTVSS | low polyreactivity
QVQLVESGGGLVQAGGSLRLSCAASGSTFPYYALGLYRQAPGKERELVAAISRGGGITYYADSVKGRFSISRDNAKNTVYLQMNCLKPEDTAVYYCAAYTAAEQGYNYWGQGTQVTVSS | high polyreactivity
QVQLVASGGGLVQAGGSLRLSCAASGFIVSVYAMGWYRQAPGKERELVAVISTSGGRTYYADSVKGRFTISRDNAQNTVYLQMNSLKPEDTAVYYCAADGFQYTLGNYYWGQGTHVTVSS | high polyreactivity
QVQLVESGGGLVQAGGSLRLSCAASGRIFTHNAMGWYRQAPGKERELVAAITSGGRTTYADSVKGRFTISRDNAKNTVYLQMNSLKPEDTAVYYCNADTGLGSLDFYNRDYWGHGTQVTVSS | low polyreactivity
QVQLVESGGGLVQAGGSLRLSCAASGSIFAFYVMGWYRQAPGKERELVAAINRGGTNTYYADSVKGRFTISRDNGKNTVYLQMNSLKPEDTAVYYCAAQRYGGMDYWGQGTQVTVSS | high polyreactivity
QVQLVESGGGLVQAGGSLRLSCAASGLIFTSYPMGWDRQAPGKERELVAAIDTSGGSTYYADSVKGRFTISRDNAKNTVYLQMNSLKPEDTAVYYCAATSTYRSYLEYDYWGQGTQVTVSS | low polyreactivity
QVQLVESGGVLVQAGGSLRLSCAASGRIFSYYAMGWYRQAPGKERELVARITSRGASTYYADSVKGRFTISRDNAKNTVYLQMNSLKPEDTAVYYCAARKDSTRRFDYWGQGTQVTVLS | high polyreactivity
QVQLVESGGGLVQAGGSLRLSCAASGRTFNGYAMGWYRQAPGKERELVAGISWRGTSTYYADSVKGRFTISRDNAKNTVYLQMNSLKPEDTAVYYCAADVWRVQHRGYNYWGQGTQVTVSS | high polyreactivity
QLHLVESGGGLVQAGGSLRLSCAGSGFTFGHSAMGWYRQAPGNDRELVASITWSGGSTYYADSVKGRFTISRDNAKNTVYLQMNSRKPEDTAVYYCNAQERRVRDYDYWGQGTQVTVSS | low polyreactivity
QVQLVESGGGLVQAGGSLRLSCAASGFTFLAYAMGWYRQAPGKERELVAAISRSGGRTYYADSVKGRFTISRDNAKNTVYLQMNSLNPEDTAVYYCAAPPRANLFDYWGQGTQVTVSS | high polyreactivity
QVQLVESGGGLVQAGGSLRLSCAASGSTFYYNAMGWYRTAPGKERELVAVIDGSGGFTYYADSVKGRFTISRDNAKNTVYLQMNSLKPEDTAVYYCNADLVYNTFIFSGGDEYDYWGQGTQVTVSS | high polyreactivity
QVQLVESGGGLVQAGGSLRLSCAASGGTFWTNAMGWYRQAPGKERELVARITSGGGTNYADSVKGRFTISRDNAKNTVYVQMNSRKPEDTAVYYCAAETIYYPVAQSYYSFEYWGQGTQVTVSS | low polyreactivity
QVQLVDSGGGLVQAGGSLRLSCAASGGTLRYYAMGWYRQAPGTEREFVASISRSGGSTYYADSVKGRFTISRDTAKYTVYLQMNSLKPVDTAVYYCADVKSSGSPRARYGYWGQGTQVTLSS | high polyreactivity
QVQLVESGGGLVQAGGSLRLICAASGRTFYSYAMAWYRQAPGQERELVAAISSGGTTYYADSVKGRFTISRDNAKNTVYLQMNSLKPEDTAVYYCATSRAWRYRSYYWGQGTQVTVSS | high polyreactivity
QVQLVESGGGLVQAGGSLRLSCAASGFTFTPYAMGLYSQAPGKERELVAAITWRGGTYYADSVKGRFTISRDNAKKSVYLQMNSLKPEDTAVYYCAARVWRLYPSTYDYWGQGTQVTVSS | high polyreactivity

Sequence | polyreactivity (PSR sort gate)
QVQLVESGGGLVQAGGTLRLSCSASGSIFGIYAMGGYRHAPGKESELVAAITSGGSTYADSVKGRFTISRDNAKNTVYLQMNSLKPVDTAVYFCAAYGRDIGGYDYWGQGSQVTVSS | low polyreactivity
QVQIVESGGGLVQAGGSLRLSCAASGSTFVVYAMGWYRQAPGKERELVAAISYRAGITYYADSVKGRFTISRDNAKNTVYLQMNSLKPEDTAVYYCAADRYYGVGSGYWGQGTQVTVSS | high polyreactivity
QVQLVESGGGLVQAGGTLRLSCAASGSIFARYAMGCSIQAPGKERELVAAISGSGASTYYADSVKGRFTISRDNAKNTVYLQMNSLKPEDTAVYYCARPFLRRPTYRFETGYGYWGQGTQVTVSS | high polyreactivity
QLQLVESGGGLVQAGGSLRLSCAASGRTFYVNAMGWYRQAHGKERELVARISSSGITYYAVSVKGRFTISRDNAKNTVYLQMNSLKPEDTAVYYCAAGPWFYYWGQGTQVTVSS | low polyreactivity
QVQLVESGGGLVQAGGSLRLSCAASGYTFGYNALGWYRQAPGKERELVAAISNGGSTNYADSVKGRFTISRDNAKNTVYLQMNSLKPEDTAVYYCAAASRLHIGYWRYDFWGQGTQVTVSS | low polyreactivity
QVQLVESGGGLVQAGGSLRLSWAASGSIITSNGMGWYRQAPGKERELVAAITSGTSTYYADSVKGRFTISRDNAKNTVYLQMNSLKPEDTAVYYCAAGRWWVYRYARYYYWGQGTQVTVSS | high polyreactivity
QVQLVESGGGLVQAGGSLRLSCAASGYTFGQNAMGWYRQAPGKEREFVAAISWSGTSTYYADSVKGRFTISRDNAKNTVYLQMNSLKPEDTALYYCAARSYRYVSRREYWGQGTQVTVSS | high polyreactivity
QVQLVESGGGLVQAGGSLRLSCAASGFIFSSYAMGWYRQAPGKERELVARISLSGGSTFYADSVKGRFTISRDNAKNTVYLQMNSLKPEDTAVYYCAARDFSTHFSPMDYWGQGPQVTVSS | low polyreactivity
QVQLVESGGGLVQAGGSLRLSCAASGFTFGRYAMGWYRQAPGKERELVAAISWSGTRTYYADSVKGRFTISRDNAKNTVYLQLNSLKPEDTADYYCAAYPPPWAQTGFYTYDYWGQGTQVTVSS | high polyreactivity
QVQLVESGGGLVQAGGSLRLSCAASGLIFVVYTMGWYRQAPGKERELVAAITGRGGSTYADSVKGRFTISRDNAKNTVYLQMNSLKPEDNAVYYCNRADYYGYRFRVYDRLDYWGQGTQVTVSS | low polyreactivity
QVQLVEPGGGLVHAGGSLRLSCAASGRIYYVYAMGWYRQAPGKERELVAGIRSGGSTNYADSVKGRFTISRDNAKNTVYLQMNSLNPEDTAVYYCAVQSYGALSPQLVYRRYDYWGQGTQVTVSS | high polyreactivity
QVQLVESGGGLVQAGGSLRLSCAASGRIFPYYGMGWYRHAPGKERELVAAITWDSGSTYYADSVKGRFTISRDNAKNTVYLQMNSLKPEDTAVYYCAAPISFYSPAEYYYWGQGTQVTVSS | low polyreactivity
QVQLVESGGGLVQAGGSLRLSCAASGSIFDYNCMGWYRQAPGKESELVATITLSTARTYYADSVKGRFTISRDNAKNTVYLQMNRLKPEDTAVYYCATRYPKFRRRNYWGQGTQVTVSS | high polyreactivity
QVQLVESGGGLVQAGGSLRLICAASGSIFFTYVMGWYRQSPGKERELVAAISSDDNTNYADSVKGRFTSSRDNAKNTVYLQMHSLKPEDTAVYYCNADTTRYPYYDYGYYDYDYWGQGTQVTVSS | low polyreactivity
QVQLVESWGGLVQAGGSLRLRCAASGRIFVSNAMGWYRQAPGKERELVAAISKRGASTYYADSVKGRFTISRDNAKNTVYLQMNSLKPEDTAVYYCNVVTPGGPNYDYWGQGTQVTVSS | high polyreactivity
QVQLVESGVGLVQAGGSLRLSCAASGRLFQYYAMGWYRQAPGKERELVASISGTGGSTYYADSVKGRFTISRDNAKNTVYLQMNSLKPEDTAVYYCAVRVKLQYWREYNYWGQGTQVTVSS | high polyreactivity
QVQLVESGGRLVQAGGSLRLSCAASGRNFGVNAMGWYRQAPGKERELVAAISVSGDSTYYADSVKGRFTISRDNAKNTVYLQMNSLKPEDTAVYYCNAGYTFVPADLTDEYYWGQGTQVTVSS | low polyreactivity
QVQLVESGGGLVQAGGSLRLSCAASGSIFFSYAMGWYRQAPGKERELVAAITSSVDSTYYADSVKGRFTISRDNAKNTVYLQMNSLKPEDTAVYYCAARYRSGYYRYDYWGQGTQVTVSS | low polyreactivity
QVQLVESGGGLVQAGGSLRLSCAASGSTFQGYAMGWYRQAPGKEREFVAAISRSGGRTYYADSVKGRFTISRDNAKNTVYLQMNSLKPEDTAVYYCAALPYWEYGYWGQGTQVTVSS | high polyreactivity
QDQLVESGGGLVQAGGSLRLSCAASGIIFYRYAMGWYRQAPGKERELVAAITWSGVSTSYADSVKGRFTISRDNAKNTVYLQMNSLKPEDTAVYYCNKDPGTLYGDMDSWGQGTQVTVSS | low polyreactivity
QVQLVESGGGLVQAGGSLRLSCAASGFIFGYYAMGWYRQAPGKERELVAGISWGGARTYYADSVKGRFTISRDNAKNTVYLQMNSLKPEDTAVYYCAATHYGHSISYWFDYWGQGTQVTVSS | high polyreactivity
